Data: patent US20210179726A1 (DINGFU BIOTARGET, published 2021)

Tests used:
[1] = molecular target: T1, hGITR-EGFP on HEK293 cells (human, UniProt Q9Y5U5 26-241); assay: FACS on hGITR-EGFP HEK293 cells
T1 construct: EGFP fusion expressed on transfected HEK293 cells; also called human GITR
T1 sequence (looked up): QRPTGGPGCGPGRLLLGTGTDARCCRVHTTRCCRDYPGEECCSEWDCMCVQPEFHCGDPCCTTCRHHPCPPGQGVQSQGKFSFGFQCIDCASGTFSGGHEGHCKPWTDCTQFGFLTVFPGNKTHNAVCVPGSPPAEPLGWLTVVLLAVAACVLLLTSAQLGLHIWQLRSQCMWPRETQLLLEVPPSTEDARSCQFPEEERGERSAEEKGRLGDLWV
Procedure: (§1) The hCD137-EGFP, hOX40-EGFP and hGITR-EGFP cells as described in Example 1 were washed twice in PBS, 10 μg/ml of each chimeric antibody as prepared in Example 3 (m2E7, m2B8, m4H3, m3E7, m1A8, m4G1, m2G3, m2F11 and m3B8) was added to each type of cells and incubated at 4° C. for 30 min. Then it was washed twice with PBS, anti-human Ig-APC (Jackson ImmunoResearch Laboratories, Cat #109-135-098) was added and were incubated at 4° C. for 30 min, washed twice with PBS and resuspended in 300 μl PBS. In FIG. 2, NC represents negative control (PBS), a-hlg-APC represents secondary antibody only, the other panels represent results obtained with each of the corresponding clone, respectively.

[2] = molecular target: T2, hOX40-EGFP on HEK293 cells (human, UniProt P43489 29-277); assay: FACS on hOX40-EGFP HEK293 cells
T2 construct: EGFP fusion expressed on transfected HEK293 cells; also called human OX40
T2 sequence (looked up): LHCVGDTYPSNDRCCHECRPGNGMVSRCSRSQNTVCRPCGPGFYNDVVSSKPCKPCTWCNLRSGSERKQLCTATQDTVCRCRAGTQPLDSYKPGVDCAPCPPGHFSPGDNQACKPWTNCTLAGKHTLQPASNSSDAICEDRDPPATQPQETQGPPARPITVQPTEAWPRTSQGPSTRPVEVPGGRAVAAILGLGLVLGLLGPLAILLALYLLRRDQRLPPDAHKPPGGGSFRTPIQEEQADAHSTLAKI
Procedure: as §1

[3] = molecular target: T3, hCD137-EGFP on HEK293 cells (human, UniProt Q07011 24-255); assay: FACS on hCD137-EGFP HEK293 cells
T3 construct: EGFP fusion expressed on transfected HEK293 cells; also called human CD137
Procedure: as §1

[4] = molecular target: T4, hCD27-EGFP on HEK293 cells (human, UniProt P26842 20-260); assay: FACS on CD27-EGFP HEK293 cells, 10 µg/ml antibody
T4 construct: EGFP fusion expressed on transfected HEK293 cells; also called CD27-EGFP cells; cell surface CD27
T4 sequence (looked up): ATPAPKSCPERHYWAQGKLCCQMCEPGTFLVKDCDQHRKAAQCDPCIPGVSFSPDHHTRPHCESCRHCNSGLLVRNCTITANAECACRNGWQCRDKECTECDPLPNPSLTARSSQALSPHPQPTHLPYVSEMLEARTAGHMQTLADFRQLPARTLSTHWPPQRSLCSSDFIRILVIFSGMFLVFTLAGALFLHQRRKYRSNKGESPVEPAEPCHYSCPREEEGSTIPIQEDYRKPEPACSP
Procedure: 5×10⁵ CD27-EGFP cells prepared in Example 1 were washed twice in PBS, 10 μg/ml of each chimeric antibody prepared in Example 3 (m2E7, m2B8, m4H3, m3E7, m1A8, m4G1, m2G3, m2F11 and m3B8) was added to the cells and incubated at 4° C. for 30 min. Then it was washed twice in PBS, anti-human Ig-APC (Jackson ImmunoResearch Laboratories, Cat #109-135-098) was added, incubated at 4° C. for 30 min, washed twice with PBS and resuspended in 300 μl PBS. In FIG. 1, NC represents negative control (PBS), a-hlg-APC represents secondary antibody only, the other panels represent results obtained with each of the corresponding clone, respectively.

T3 sequence (Q07011 24-255): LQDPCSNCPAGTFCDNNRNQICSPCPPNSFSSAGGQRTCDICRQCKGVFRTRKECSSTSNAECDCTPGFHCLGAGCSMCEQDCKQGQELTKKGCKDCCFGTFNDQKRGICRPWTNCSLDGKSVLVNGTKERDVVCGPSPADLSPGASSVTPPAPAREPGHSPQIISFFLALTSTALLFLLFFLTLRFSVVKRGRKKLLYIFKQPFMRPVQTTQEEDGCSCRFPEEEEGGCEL

B1: m3E7 (antibody, human IgG1, V domains shown)
VH: QIQLVQSGPELKKPGETVKISCKASGYTFTTYGMSWVKQAPGKGLHWMGWINTHSGAPTYVDDFKGRFAFSLETSASTAFLQINNLINEDTATYFCAREGDALDYWGQGTSVTVSS
VL: DIVMTQTTAIMSAFPGEKVTMTCSASSSVSYMHWYQQKSGTSPKRWIYDTSKLASGVPVRFSGSGSGTSYSLTISNMEAEDAATYYCQQWSRNPPFTFGAGTKLELK
notes: Chimeric antibody: mouse VH/VL on human IgG1 / human kappa constant regions; also called clone 3E7; not shown: human IgG1 constant region, UniProt P01857
[1]
  binding result: no binding (tested: 10 µg/ml)
[2]
  binding result: no binding (tested: 10 µg/ml)
[3]
  binding result: no binding (tested: 10 µg/ml)
[4]
  binding result: binds
